# Measured values published in publication PMC8596017, “Evolutionary mode for the functional preservation of fast-evolving Drosophila telomere capping proteins” (Open Biology, 2021).
# T1: Verrocchio (Ver), wild type, Flag-tagged (D. melanogaster, UniProt Q9VTZ2 1-214)
# T1 construct: Verrocchio (Ver), Terminin subunit of D. melanogaster; also called wild-type Ver; source: Arctic express cells (DE3), co-expressed with Moi-HA from a bicistronic pET vector; cell lysate, heparin-sepharose fractions, anti-FLAG M2 eluate; not shown: Flag, N-terminal, kept
# T1 sequence (looked up): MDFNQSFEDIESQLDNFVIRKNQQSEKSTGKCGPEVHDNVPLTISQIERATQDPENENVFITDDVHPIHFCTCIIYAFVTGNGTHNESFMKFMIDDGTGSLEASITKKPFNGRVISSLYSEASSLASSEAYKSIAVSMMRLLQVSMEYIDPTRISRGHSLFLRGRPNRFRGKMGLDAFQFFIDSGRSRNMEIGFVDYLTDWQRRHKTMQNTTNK
# How the values were obtained:
# [1] = system: Ver (wild type);Moi (Drosophila melanogaster;Drosophila melanogaster); assay: BLI; details: PBS + 0.05% Tween 20, BLI and EMSA: PBS (137 mM NaCl, 2.7 mM KCl, 10 mM Na2HPO4, 1.8 mM KH2PO4) + 0.05% Tween 20, EMSA 15 min at room temperature, 20 fmol ssDNA, pull-down: 4 C …
# [2] = system: Ver (wild type);Moi (Drosophila melanogaster;Drosophila melanogaster); assay: pull-down; details: reference; BLI and EMSA: PBS (137 mM NaCl, 2.7 mM KCl, 10 mM Na2HPO4, 1.8 mM KH2PO4) + 0.05% Tween 20, EMSA 15 min at room temperature, 20 fmol ssDNA; pull-down: 4 C …
# [3] = target: M1-Ver (Ver with the Group 1 uncharacterized helices deleted), Flag-tagged (D. melanogaster) (UniProt Q9VTZ2); assay: co-IP; Flag immune-affinity purification: heparin-sepharose fractions loaded on anti-FLAG M2 affinity matrix, washed with buffer I (25 mM Tris HCl pH 7.5, 100 mM NaCl, 1 mM CaCl2, 1 mM MgCl2) or PBS, eluted with 3× Flag peptide
# [4] = target: M3-Ver (Ver with the putative DNA binding surface, Group 3, partially deleted), Flag-tagged (D. melanogaster) (UniProt Q9VTZ2); assay: as above
# [5] = target: T1, Verrocchio (Ver), wild type, Flag-tagged; assay: as above; details: partners not purified
Molecule,"Kd ([1]; Kd1, heterogeneous ligand (2:1) model) [nM]","Kd ([1]; Kd2, heterogeneous ligand (2:1) model) [nM]",binding signal (fraction of Moi eluted from ssDNA) [2],stoichiometry N [3],stoichiometry N [4],stoichiometry N [5]
80 nt ssDNA,129,1570,1,,,
"Modigliani (Moi), HA-tagged at the C-terminus (natural protein, D. melanogaster, UniProt B7Z0L8 1-178, looked up, DTL/Modigliani (Moi), Terminin subunit of D. melanogaster; also called DTL; source: Arctic express cells (DE3), co-expressed with Ver from a bicistronic pET vector; cell lysate, heparin-sepharose fractions, anti-FLAG M2 eluate; not shown: HA, C-terminal, kept) MSLVPEASTSRAPKYCYFFKTLLVEELELETSYHNLHYGQCALIGRLAFKANQYRLENVRVKCLPKKYSLGEGTVSLLILGLTHDKVVENRVSTGRYCIVRGEVVLHNVQHPKGAKLTAGGVYDKINSLSNDPLAQKQYLSALLATYRPAIDLWYIQVIDRAEDLLTRRLEMRSLIEK",,,,1,1,~1
